Measured values taken from article PMC4191985.

Biological target: BamA^Eco (Escherichia coli) (UniProt P0A940)
Assay: flow cytometry on cells
Conditions: remark: other sources report otherwise

CdiA^EC93, Q3YL96 33-3132 showed a percent of target cells bound to inhibitor cells of 73%.
